From paper PMC3327807

Substrate: Nc1ncnc2c1ncn2[C@@H]1O[C@H](CO)[C@@H](O)[C@H]1O
Assay: UV spectrophotometric deamination kinetics
Assay type: biochemical, Plasmodium vivax
Details: zinc

B1: P. vivax adenosine deaminase (pvADA) (Plasmodium vivax Sal-1) (protein)
chain: MNILQEPIDFLKKEELKNIDLSQMSKKERYKIWKRIPKCELHCHLDLCFSADFFVSCIRKYNLQPNLSDEEVLDYYLFAKGGKSLGEFVEKAIKVADIFHDYEVIEDLAKHAVFNKYKEGVVLMEFRYSPTFVAFKYNLDIELIHQAIVKGIKEVVELLDHKIHVALMCIGDTGHEAANIKASADFCLKHKADFVGFDHGGHEVDLKEYKEIFDYVRESGVPLSVHAGEDVTLPNLNTLYSAIQVLKVERIGHGIRVAESQELIDMVKEKNILLEVCPISNVLLKNAKSMDTHPIRQLYDAGVKVSVNSDDPGMFLTNINDDYEELYTHLNFTLEDFMKMNEWALEKSFMDSNIKDKIKNLYF
With B1 as the protein, how does the Km read?
The Km was 71 ± 16 µM.
